Data on three substances can be found in PMC3180432.

For one experiment, the target named is B7.1-Fc (mouse) (UniProt Q00609). Description: SPR; BIAcore 2000, CM5 chip, ligand immobilised by amine coupling, analyte protein injected at different molarities at 10 uL/min, HBS (0.01 M Hepes pH 7.4, 0.15 M NaCl, 0.005% P20), 25°C.
The target in another experiment is B7-H1-Fc (mouse) (UniProt Q9EP73). Described as above.

The substance “B7-H1-Fc (from UniProt Q9EP73 19-239) (Fc fusion)” yielded a Kd with B7.1-Fc (mouse) of 1070 nM.
On to “PD-1-Fc (from UniProt Q02242 25-169) (Fc fusion)”, for which the dissociation constant Kd in the experiment with B7-H1-Fc (mouse) turned out to be 820 nM.
Same read-out and setting: for “B7.1-Fc (from UniProt Q00609 38-246) (Fc fusion)” the value was 380 nM.
